Measured values as given in the supplement of paper PMC10567573.

B1: STX5 (parent)
chain: ESTIVELGSIFQQLAHMVKEQEET
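Also: lentivirally expressed fusions sorted by FACS into six bins by GFP to DsRed ratio, PSI derived from sequencing read proportions per bin multiplied by bin number.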

Variants of: B1
Test: protein stability index of a GFP-peptide fusion (GPS, HEK-293T) (PSI 1-6); higher = more stable
Details: c terminus: a fixed tail appended
Work on ESTIVELSSIFQQLAHMVKEQEET [G8S] yielded a protein stability index of 2.79. ESTIVELPSIFQQLAHMVKEQEET [G8P] showed a protein stability index of 3.99. Variant ESTIVELRSIFQQLAHMVKEQEET [G8R] has a protein stability index of 1.84. ESTIVELCSIFQQLAHMVKEQEET [G8C] gave a protein stability index of 2.33. For ESTIVELESIFQQLAHMVKEQEET [G8E], the protein stability index was 3.02. Work on ESTIVELQSIFQQLAHMVKEQEET [G8Q] yielded a protein stability index of 1.68. Work on ESTIVELGHIFQQLAHMVKEQEET [S9H] yielded a protein stability index of 2.64. Work on ESTIVELGEIFQQLAHMVKEQEET [S9E] yielded a protein stability index of 2.08. ESTIVELGIIFQQLAHMVKEQEET [S9I] showed a protein stability index of 1.32. For ESTIVELGKIFQQLAHMVKEQEET [S9K], the protein stability index was 2.34. Work on ESTIVELGCIFQQLAHMVKEQEET [S9C] yielded a protein stability index of 1.63. With ESTIVELGYIFQQLAHMVKEQEET [S9Y] the protein stability index was 1.46. With ESTIVELGRIFQQLAHMVKEQEET [S9R] the protein stability index was 2.41. ESTIVELGDIFQQLAHMVKEQEET [S9D] showed a protein stability index of 2.55. Variant ESTIVELGLIFQQLAHMVKEQEET [S9L] has a protein stability index of 1.71. ESTIVELGTIFQQLAHMVKEQEET [S9T] showed a protein stability index of 2.11. With ESTIVELGMIFQQLAHMVKEQEET [S9M] the protein stability index was 1.87. ESTIVELGNIFQQLAHMVKEQEET [S9N] gave a protein stability index of 2.26. Work on ESTIVELGVIFQQLAHMVKEQEET [S9V] yielded a protein stability index of 1.8. With ESTIVELGAIFQQLAHMVKEQEET [S9A] the protein stability index was 1.65. With ESTIVELGGIFQQLAHMVKEQEET [S9G] the protein stability index was 3.22. ESTIVELGQIFQQLAHMVKEQEET [S9Q] showed a protein stability index of 2.1. With ESTIVFLGSIFQQLAHMVKEQEET [E6F] the protein stability index was 2.19. In the case of ESTIVKLGSIFQQLAHMVKEQEET [E6K], the protein stability index is reported as 2.54. ESTIVCLGSIFQQLAHMVKEQEET [E6C] showed a protein stability index of 2.06. Variant ESTIVALGSIFQQLAHMVKEQEET [E6A] has a protein stability index of 1.65. In the case of ESTIVTLGSIFQQLAHMVKEQEET [E6T], the protein stability index is reported as 1.91. With ESTIVQLGSIFQQLAHMVKEQEET [E6Q] the protein stability index was 2.33. ESTIVYLGSIFQQLAHMVKEQEET [E6Y] gave a protein stability index of 1.81. ESTIVMLGSIFQQLAHMVKEQEET [E6M] showed a protein stability index of 1.95. ESTIVGLGSIFQQLAHMVKEQEET [E6G] showed a protein stability index of 2.75. ESTIVRLGSIFQQLAHMVKEQEET [E6R] gave a protein stability index of 4.41. ESTIVNLGSIFQQLAHMVKEQEET [E6N] showed a protein stability index of 3.14. Work on ESTIVPLGSIFQQLAHMVKEQEET [E6P] yielded a protein stability index of 2.75. Variant ESTIVHLGSIFQQLAHMVKEQEET [E6H] has a protein stability index of 2.33. With ESTIVVLGSIFQQLAHMVKEQEET [E6V] the protein stability index was 1.62. Work on ESTIVILGSIFQQLAHMVKEQEET [E6I] yielded a protein stability index of 3.1. Variant ESTIVDLGSIFQQLAHMVKEQEET [E6D] has a protein stability index of 1.63. For ESTIVLLGSIFQQLAHMVKEQEET [E6L], the protein stability index was 2.34. Work on ESTIVEFGSIFQQLAHMVKEQEET [L7F] yielded a protein stability index of 3.03. ESTIVEYGSIFQQLAHMVKEQEET [L7Y] showed a protein stability index of 3.97. Work on ESTIVESGSIFQQLAHMVKEQEET [L7S] yielded a protein stability index of 5.42. Work on ESTIVEWGSIFQQLAHMVKEQEET [L7W] yielded a protein stability index of 2.99. For ESTIVEVGSIFQQLAHMVKEQEET [L7V], the protein stability index was 4.25. In the case of ESTIVENGSIFQQLAHMVKEQEET [L7N], the protein stability index is reported as 4.96. Variant ESTIVEQGSIFQQLAHMVKEQEET [L7Q] has a protein stability index of 4.89. With ESTIVEHGSIFQQLAHMVKEQEET [L7H] the protein stability index was 4.9. With ESTIVEPGSIFQQLAHMVKEQEET [L7P] the protein stability index was 4.75. ESTIVEDGSIFQQLAHMVKEQEET [L7D] showed a protein stability index of 5.12. Work on ESTIVECGSIFQQLAHMVKEQEET [L7C] yielded a protein stability index of 3.74. In the case of ESTIVEIGSIFQQLAHMVKEQEET [L7I], the protein stability index is reported as 2.16. ESTIVEKGSIFQQLAHMVKEQEET [L7K] gave a protein stability index of 5.07. ESTIVEMGSIFQQLAHMVKEQEET [L7M] gave a protein stability index of 2.48. For ESTIVEEGSIFQQLAHMVKEQEET [L7E], the protein stability index was 5.22. In the case of ESTIVETGSIFQQLAHMVKEQEET [L7T], the protein stability index is reported as 4.5. In the case of ESTIVEGGSIFQQLAHMVKEQEET [L7G], the protein stability index is reported as 5.65. Work on ESTIVERGSIFQQLAHMVKEQEET [L7R] yielded a protein stability index of 5.13. With ESTCVELGSIFQQLAHMVKEQEET [I4C] the protein stability index was 2.83. Variant ESTVVELGSIFQQLAHMVKEQEET [I4V] has a protein stability index of 3.59. Variant ESTYVELGSIFQQLAHMVKEQEET [I4Y] has a protein stability index of 1.91. Variant ESTDVELGSIFQQLAHMVKEQEET [I4D] has a protein stability index of 2.78. ESTNVELGSIFQQLAHMVKEQEET [I4N] showed a protein stability index of 3.05. Work on ESTQVELGSIFQQLAHMVKEQEET [I4Q] yielded a protein stability index of 3.69. ESTFVELGSIFQQLAHMVKEQEET [I4F] showed a protein stability index of 2.29. In the case of ESTGVELGSIFQQLAHMVKEQEET [I4G], the protein stability index is reported as 2.42. For ESTWVELGSIFQQLAHMVKEQEET [I4W], the protein stability index was 2.54. With ESTMVELGSIFQQLAHMVKEQEET [I4M] the protein stability index was 1.57. Variant ESTLVELGSIFQQLAHMVKEQEET [I4L] has a protein stability index of 1.81. ESTTVELGSIFQQLAHMVKEQEET [I4T] showed a protein stability index of 2.73. Variant ESTRVELGSIFQQLAHMVKEQEET [I4R] has a protein stability index of 3. Variant ESTPVELGSIFQQLAHMVKEQEET [I4P] has a protein stability index of 2.93. ESTEVELGSIFQQLAHMVKEQEET [I4E] gave a protein stability index of 2.8. ESTHVELGSIFQQLAHMVKEQEET [I4H] showed a protein stability index of 3.14. ESTSVELGSIFQQLAHMVKEQEET [I4S] gave a protein stability index of 2.64. ESTKVELGSIFQQLAHMVKEQEET [I4K] showed a protein stability index of 2.55. For ESTAVELGSIFQQLAHMVKEQEET [I4A], the protein stability index was 2.27. ESTIVELGSLFQQLAHMVKEQEET [I10L] gave a protein stability index of 2.63. With ESTIVELGSPFQQLAHMVKEQEET [I10P] the protein stability index was 5.58. ESTIVELGSFFQQLAHMVKEQEET [I10F] gave a protein stability index of 2.26. Variant ESTIVELGSTFQQLAHMVKEQEET [I10T] has a protein stability index of 4.49. With ESTIVELGSEFQQLAHMVKEQEET [I10E] the protein stability index was 5.46. For ESTIVELGSMFQQLAHMVKEQEET [I10M], the protein stability index was 2.6. With ESTIVELGSHFQQLAHMVKEQEET [I10H] the protein stability index was 4.5. With ESTIVELGSKFQQLAHMVKEQEET [I10K] the protein stability index was 3.69. ESTIVELGSRFQQLAHMVKEQEET [I10R] gave a protein stability index of 3.9. ESTIVELGSWFQQLAHMVKEQEET [I10W] gave a protein stability index of 2.58. In the case of ESTIVELGSCFQQLAHMVKEQEET [I10C], the protein stability index is reported as 3.72. For ESTIVELGSNFQQLAHMVKEQEET [I10N], the protein stability index was 5.07. ESTIVELGSQFQQLAHMVKEQEET [I10Q] gave a protein stability index of 4.27. Work on ESTIVELGSYFQQLAHMVKEQEET [I10Y] yielded a protein stability index of 3.49. For ESTIVELGSVFQQLAHMVKEQEET [I10V], the protein stability index was 3.1. In the case of ESTIVELGSSFQQLAHMVKEQEET [I10S], the protein stability index is reported as 4.89. ESTIVELGSDFQQLAHMVKEQEET [I10D] gave a protein stability index of 5.88. With ESTIVELGSAFQQLAHMVKEQEET [I10A] the protein stability index was 4.32.
